Assay results taken from patent publication US20250115671A1 (BEIGENE, published 2025).
Where a chain is given by its changes, count along the chain named. Like-named read-outs stand apart in the source and are kept apart here. Blank lines part the entries; values can stand above or below the molecule they belong to.

Legend:
human CCR8 [1] = molecular target: T1, human CCR8 (human, UniProt P51685 1-355); test: flow cytometry, stimulated human primary Treg cells (high CCR8)
Experimental: Treg binding of the humanized antibodies was measured on Treg cells from human PBMC. Briefly, CD25+ cells were isolated from human PBMC. The cells were stimulated with IL-2, TGFβ and anti-CD3/CD28 beads for high CCR8-expression level Treg cells. Next, Treg cells were seeded in 96-well plate and incubated with a series of dilutions of anti-CCR8 antibodies. Goat anti-human IgG was used as secondary antibody to detect antibody binding to the cell surface. EC50 values for dose-dependent binding to human CCR8 were determined by fitting the dose-response data to the four-parameter logistic model with GraphPad Prism. As shown in FIG. 6A and Table 12 the hu305-5W-3a had the highest binding affinity to CCR8 on Treg cells of the humanized antibodies. As noted in Table 12 and FIG. 6A below, the hu305-5W-3a antibody also had the lowest IC50 regarding reducing ligand-receptor interaction.

human CCR8 [2] = molecular target: T1, human CCR8; test: flow cytometry, Jurkat-human CCR8 cells
Experimental: To evaluate the binding activity of anti-CCR8 antibodies to bind CCR8 expressed on living cells, Jurkat cells were engineered to over-express human CCR8. Jurkat-human CCR8 cells were seeded in 96-well plate and incubated with a series of dilutions of anti-CCR8 antibodies. Goat anti-human IgG was used as secondary antibody to detect antibody binding to the cell surface. EC50 values for dose-dependent binding to human CCR8 were determined by fitting the dose-response data to the four-parameter logistic model with GraphPad Prism. As shown in Table 4 and FIG. 3 the CCR8 antibodies had high binding affinity to human CCR8.

[3] = molecular target: T2, human CCR8 N-terminal domain-mouse Fc tag fusion protein (human (CCR8 part), mouse IgG2a Fc); test: ELISA, plate coated with human CCR8 N-terminal domain-Fc fusion
T2 construct: also called huCCR8-N-mIgG2a; human CCR8 N-terminal protein
T2 chain: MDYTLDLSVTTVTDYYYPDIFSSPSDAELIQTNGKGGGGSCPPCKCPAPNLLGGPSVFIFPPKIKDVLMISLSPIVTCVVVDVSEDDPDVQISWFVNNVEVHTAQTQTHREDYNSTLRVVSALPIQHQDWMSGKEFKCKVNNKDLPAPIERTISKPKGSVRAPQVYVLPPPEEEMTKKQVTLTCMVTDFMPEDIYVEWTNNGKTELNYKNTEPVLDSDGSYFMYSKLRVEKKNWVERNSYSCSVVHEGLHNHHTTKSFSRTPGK
Experimental: To determine whether anti-CCR8 antibodies bind to the N-terminal domain of human CCR8, ELISA plates were coated with human CCR8 N-terminal domain-mouse Fc tag fusion protein (SEQ ID NO: 28 and 29) overnight at 4° C. After washing and blocking, serially diluted anti-CCR8 antibodies were added to plates and incubated for 1 hour at room temperature. After washing, diluted HRP goat anti-human IgG Fc or HRP goat anti-mouse kappa chain (for 433H) secondary antibodies were added to plates and incubated for 45 minutes at room temperature. After washing, TMB substrate was added to plates for developing and then stopped by adding TMB substrate stop solution. The absorbance was read at 450 nm using a plate reader. […] It is a non CCR8 N-terminal loop binder.

human CCR8 [4] = molecular target: T1, human CCR8; test: cell-based or functional assay
human CCR8 [5] = molecular target: T1, human CCR8; test: flow cytometry, Jurkat/huCCR8 cells, Test1
Experimental: (§1) To evaluate the binding activities of anti-CCR8 antibodies to bind native CCR8 on live cells, Jurkat cells (ATCC TIB-15) were engineered to over-express human CCR8. Live Jurkat/huCCR8 cells were seeded in 96-well plate, and were incubated with a series of dilutions of anti-CCR8 antibodies. Alexa Fluor® 647 anti-Human IgG Fc Antibody (Biolegend cat: 410714) was used as a secondary antibody to detect antibody binding to CCR8 expressed on the cell surface. EC50 values for dose-dependent binding to human native CCR8 were determined by fitting the dose-response data to the four-parameter logistic model with GraphPad Prism.

human CCR8 [6] = molecular target: T1, human CCR8; test: cell-based or functional assay; remark: listed apart in the source
human CCR8 [7] = molecular target: T1, human CCR8; test: flow cytometry, Jurkat/huCCR8 cells, Test2
Experimental: as §1

Cynomolgus Monkey CCR8 = molecular target: T3, Cynomolgus Monkey CCR8 (cynomolgus monkey, UniProt O97665 1-356 (rhesus entry)); test: flow cytometry, 293T-cynoCCR8 cells
T3 construct: also called cyno CCR8; cynoCCR8
T3 sequence (O97665 other isoform, or with tags, fused parts or gaps): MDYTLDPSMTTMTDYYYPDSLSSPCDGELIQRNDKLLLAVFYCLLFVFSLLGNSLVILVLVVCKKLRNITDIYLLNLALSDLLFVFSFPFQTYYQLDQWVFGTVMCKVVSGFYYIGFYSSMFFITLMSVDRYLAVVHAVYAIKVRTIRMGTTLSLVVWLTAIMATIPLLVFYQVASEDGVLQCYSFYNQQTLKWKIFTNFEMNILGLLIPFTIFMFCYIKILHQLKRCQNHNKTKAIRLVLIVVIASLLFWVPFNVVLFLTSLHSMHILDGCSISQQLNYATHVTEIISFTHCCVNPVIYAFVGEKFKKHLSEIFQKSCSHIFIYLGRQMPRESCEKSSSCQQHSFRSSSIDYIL
Experimental: Goat anti-human IgG was used as secondary antibody to detect antibody binding to the cell surface. EC50 values for dose-dependent binding to cyno CCR8 were determined by fitting the dose-response data to the four-parameter logistic model with GraphPad Prism.

human CCR8 [8] = molecular target: T1, human CCR8; test: FACS binning, Jurkat-huCCR8, 200 nM each; row = unlabeled 1st Ab; competitor (APC labeled 2nd Ab): 433H
human CCR8 [9] = molecular target: T1, human CCR8; test: FACS binning, Jurkat-huCCR8, 200 nM each; row = unlabeled 1st Ab; competitor (APC labeled 2nd Ab): Ch326
human CCR8 [10] = molecular target: T1, human CCR8; test: FACS binning, Jurkat-huCCR8, 200 nM each; row = unlabeled 1st Ab; competitor (APC labeled 2nd Ab): Ch127
human CCR8 [11] = molecular target: T1, human CCR8; test: FACS binning, Jurkat-huCCR8, 200 nM each; row = unlabeled 1st Ab; competitor (APC labeled 2nd Ab): Ch366-2
human CCR8 [12] = molecular target: T1, human CCR8; test: FACS binning, Jurkat-huCCR8, 200 nM each; row = unlabeled 1st Ab; competitor (APC labeled 2nd Ab): Ch305
human CCR8 [13] = molecular target: T1, human CCR8; test: FACS binning, Jurkat-huCCR8, 200 nM each; row = unlabeled 1st Ab; competitor (APC labeled 2nd Ab): Ch211
[14] = molecular target: human CCR8 N-terminal domain-mouse Fc tag fusion protein (human (CCR8 part), mouse IgG2a Fc); test: ELISA, plate coated with human CCR8 N-terminal domain-Fc fusion
human CCR8 [15] = molecular target: T1, human CCR8; test: FACS binning, Jurkat-huCCR8, 200 nM each; row = unlabeled 1st Ab; competitor (APC labeled 2nd Ab): 4A19

T1 sequence (P51685 whole entry): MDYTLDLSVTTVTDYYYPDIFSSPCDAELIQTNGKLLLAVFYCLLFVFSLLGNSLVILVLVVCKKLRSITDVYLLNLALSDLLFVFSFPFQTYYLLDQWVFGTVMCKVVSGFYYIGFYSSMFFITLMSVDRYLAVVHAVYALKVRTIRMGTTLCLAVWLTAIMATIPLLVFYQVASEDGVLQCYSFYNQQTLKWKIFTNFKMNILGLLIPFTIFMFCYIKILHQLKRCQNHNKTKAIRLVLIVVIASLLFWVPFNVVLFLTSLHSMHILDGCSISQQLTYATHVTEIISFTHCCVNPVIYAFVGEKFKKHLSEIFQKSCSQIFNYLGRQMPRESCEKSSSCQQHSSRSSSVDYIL

B1: 4A19 (antibody, V domains shown)
VH: QVQLVQSGAEVKKPGASVKVSCKASGYTFTDSEMHWVRQATGQGLEWMGAIQPETGGTAYNQKFKARVTMTRDTSISTAYMELSSLRSEDTAVYYCARRRRNFDYWGQGTLVTVSS
VL: DIVMTQTPLSLSVTPGQPASISCRSSQSLFHSSGNTYLHWYLQKPGQPPQLLIYKVSNRFSGVPDRFSGSGSGTDFTLKISRVEAEDVGVYYCSQSTHVPFTFGQGTKLEIKR
EC50 [3]: 0.11 nM

B2: Ch305-AF (antibody, V domains shown)
VH: QVQMKQSGPSLVQPSQSLSITCTVSGFSLTSYGVHWVRQSPGKGLEWLGVIWRGGTTDYNAAFMSRLSFTKDSSKSQVFFKLNSLQADDTAIYYCAKNRVTTVVAPNFYAMDYWGQGTSVTVSS
VL: DIVMTQSPSSLAVSVGEKVTMSCKSSQSLLYSGNQKNYLAWYQQKPGQSPKLLIYWASTRKSGVPDRLTGSGSGTDFTLTISSVKAEDLAAYYCQQYYTYPLTFGAGTRLEIK
notes: human IgG1/kappa; also called afucosylated Ch305
EC50 (human CCR8 [1]): 90.7 nM
Emax (human CCR8 [1]): 1750 RLU
EC50 (nM), NK cell mediated cytotoxicity (ADCC) on CCR8-expressing Treg (human CCR8 [4]): 0.064 nM
Emax (%), NK cell mediated cytotoxicity (ADCC) on CCR8-expressing Treg (human CCR8 [4]): 75.1%
EC50 (human CCR8 [5]): 3.88 nM
Emax (human CCR8 [5]): 25200 MFI
IC50(nM), blocking activity (human CCR8 [6]): 1.84 nM
Imax(%), blocking activity (human CCR8 [6]): 87.8%
EC50 (human CCR8 [7]): 4.75 nM
Emax (human CCR8 [7]): 16600 MFI
EC50 (Cynomolgus Monkey CCR8): 14.8 nM
Emax (Cynomolgus Monkey CCR8): 11900 RLU

B3: 433H (antibody, from another filing, V domains shown)
VH: EVQLVETGGGLVQPKGSLRLSCAASGFPFNTFAMNWVRQAPGKGLEWLARIRSKSNNYATYYADSVKDRFTISRDDSRRMLYLLMNNVKFEDTAIYYCVRGKENNYGYAMDYWGQGTSVTVSS
VL: DIVMTQAAPSVPVTPGESVSISCRSSQSLLHSNGNTYLYWFLQRPGQSPQLLIYRMSNLASGVPDRFSGSGSGTAFTLRISRVEAEDVGVYYCMQHLEYPFTFGIGTKLELKR
% of the maximum binding of the APC labeled antibody (human CCR8 [8]): 3.03%
% of the maximum binding of the APC labeled antibody (human CCR8 [9]): 1.87%
% of the maximum binding of the APC labeled antibody (human CCR8 [10]): 2.55%
% of the maximum binding of the APC labeled antibody (human CCR8 [11]): 14.2%
% of the maximum binding of the APC labeled antibody (human CCR8 [12]): 28.9%
% of the maximum binding of the APC labeled antibody (human CCR8 [13]): 39.9%
EC50 [14]: 0.94 nM
% of the maximum binding of the APC labeled antibody (human CCR8 [15]): 8.43%

B4: hu305-5W-3a-AF (antibody, V domains shown)
VH: QVQLKQSGPGLVKPSETLSLTCTVSGFSLAVYGVHWVRQPPGKGLEWLGVIWRGGTTDYNPSLKSRLTFSKDSSKSQVSLKLSSVTAADTAVYYCAKNRVTTVVAPNFYAMDYWGQGTLVTVSS
VL: DIVMTQSPDSLAVSLGERATINCKSSQSLLYSGNQKNYLAWYQQKPGQPPKLLIYWASTRKSGVPDRFSGSGSGTDFTLTISSLKAEDVAVYYCQQYYTYPLTFGQGTRLEIK
notes: also called afucosylated hu305-5W-3a
EC50 (human CCR8 [1]): 47.6 nM
Emax (human CCR8 [1]): 2030 RLU
EC50 (nM), NK cell mediated cytotoxicity (ADCC) on CCR8-expressing Treg (human CCR8 [4]): 0.059 nM
Emax (%), NK cell mediated cytotoxicity (ADCC) on CCR8-expressing Treg (human CCR8 [4]): 75.5%
IC50(nM), blocking activity (human CCR8 [6]): 1.82 nM
Imax(%), blocking activity (human CCR8 [6]): 87.3%
EC50 (human CCR8 [7]): 2.98 nM
Emax (human CCR8 [7]): 16700 MFI
EC50 (Cynomolgus Monkey CCR8): 12.5 nM
Emax (Cynomolgus Monkey CCR8): 12400 RLU

Continued, in another order:

Emax (human CCR8 [1]): 60 RLU
Emax (human CCR8 [2]): 204 RFU
Molecule: hIgG (antibody)

EC50 (human CCR8 [1]): 136 nM
Emax (human CCR8 [1]): 1860 RLU
EC50 (human CCR8 [5]): 5.83 nM
Emax (human CCR8 [5]): 22900 MFI
IC50(nM), blocking activity (human CCR8 [6]): 13.1 nM
Imax(%), blocking activity (human CCR8 [6]): 75.6%
EC50 (Cynomolgus Monkey CCR8): 16.6 nM
Emax (Cynomolgus Monkey CCR8): 12300 RLU
B5: hu305-4F-2m-AF (antibody, V domains shown)
VH: B4 VH with K5Q, Q6E, E16Q
VL: B4 VL with A19V, P49S, K85Q, V91A
EC50 (nM), NK cell mediated cytotoxicity (ADCC) on CCR8-expressing Treg (human CCR8 [4]): 0.585 nM
Emax (%), NK cell mediated cytotoxicity (ADCC) on CCR8-expressing Treg (human CCR8 [4]): 70.9%

EC50 (human CCR8 [1]): 117 nM
Emax (human CCR8 [1]): 1760 RLU
EC50 (human CCR8 [5]): 6.01 nM
Emax (human CCR8 [5]): 23500 MFI
IC50(nM), blocking activity (human CCR8 [6]): 6.19 nM
Imax(%), blocking activity (human CCR8 [6]): 78%
EC50 (Cynomolgus Monkey CCR8): 16.7 nM
Emax (Cynomolgus Monkey CCR8): 12500 RLU
B6: hu305-4F-2l-AF (antibody, V domains shown)
VH: B4 VH with K5Q, Q6E, E16Q
VL: B4 VL with A19V, I21M, P49S, K85Q, V91A
notes: also called hu305-4F-21-AF; hu305-4F-21
EC50 (nM), NK cell mediated cytotoxicity (ADCC) on CCR8-expressing Treg (human CCR8 [4]): 0.396 nM
Emax (%), NK cell mediated cytotoxicity (ADCC) on CCR8-expressing Treg (human CCR8 [4]): 72.3%

EC50 (human CCR8 [1]): 35.2 nM
Emax (human CCR8 [1]): 1720 RLU
IC50(nM), blocking activity (human CCR8 [6]): 10.5 nM
Imax(%), blocking activity (human CCR8 [6]): 77.1%
EC50 (human CCR8 [7]): 2.99 nM
Emax (human CCR8 [7]): 17500 MFI
EC50 (Cynomolgus Monkey CCR8): 9.83 nM
Emax (Cynomolgus Monkey CCR8): 12600 RLU
B7: hu305-5P-3a-AF (antibody, V domains shown)
VH: B4 VH with A30T, V31S, L67V, S76N
VL: B4 VL
EC50 (nM), NK cell mediated cytotoxicity (ADCC) on CCR8-expressing Treg (human CCR8 [4]): 0.077 nM
Emax (%), NK cell mediated cytotoxicity (ADCC) on CCR8-expressing Treg (human CCR8 [4]): 73.7%
